From patent US20080171037A1, “Apo-3 ligand polypeptide” (Genentech, Inc., priority 1997, published 2008)
Entries after “also recorded” stand apart in the source; their conditions may differ.

T1: Apo-3 (Homo sapiens, UniProt Q93038)
T1 construct: made in house
T1 sequence (Q93038 25-199 limits assumed): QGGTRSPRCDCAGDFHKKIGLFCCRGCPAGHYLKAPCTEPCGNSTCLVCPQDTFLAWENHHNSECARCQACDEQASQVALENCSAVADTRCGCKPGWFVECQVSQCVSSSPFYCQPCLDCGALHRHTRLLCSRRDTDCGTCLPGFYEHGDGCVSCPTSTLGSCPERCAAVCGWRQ


How the values were obtained:
[1] = test system: HeLa S3 cervical carcinoma cells; assay: Apoptosis in HeLa S3 cells (DNA fragmentation analysis); type: cell-based, human; conditions: HeLa S3 cells pre-treated with CHX, FIG. 9C
Description: HeLa S3 cervical carcinoma cells (ATCC CCL 2.2) were similarly pre-treated with CHX and then incubated with soluble Apo-3 Ligand (prepared as described in Example 3 above) alone or together with zVAD-fmk or DEVD-fmk (Research Biochemicals) (100 nM). The treated cells were then subjected to DNA fragmentation analysis.

[2] = test system: MCF-7 breast carcinoma cells; assay: Apoptosis in MCF-7 breast carcinoma cells (microscopy, Hoechst dye); type: cell-based, human; conditions: MCF-7 cells pre-treated with CHX 10 μg/ml, ligand 2 μg/ml, 14 hours, FIG. 9A
Description: Human MCF-7 breast carcinoma cells (ATCC HTB 22) were pre-treated for 1 hour with cyclohexamide (CHX) (10 μg/ml) and incubated for 14 hours with soluble Apo-3 Ligand (2 μg/ml; prepared as described in Example 3 above) alone or together with zVAD-fmk (Research Biochemicals) (100 nM). The cells were then stained with Hoechst dye and photographed by phase (FIG. 9A, left) and by fluorescence (FIG. 9A, right) microscopy. In FIG. 9A, arrowheads indicate some of the apoptotic cells (left) and their condensed nuclei (right).
In a separate experiment, the MCF-7 cells were pre-treated for 1 hour with buffer or CHX, incubated for an additional 14 hours with the indicated concentrations of soluble Apo-3 Ligand (see FIG. 9B), and apoptotic or live cells were score by microscopy.

NF-κB [3] = assay: NF-κB activation, electrophoretic mobility shift assay, HeLa cells; type: cell-based, human; conditions: FIG. 5A
Description: In a first assay, HeLa cells (ATCC CCL 22) were treated with His-tagged soluble Apo-3 Ligand (described in Example 3) (10 μg/ml) in duplicate or with vehicle for 30 minutes. His-tagged Apo-2 ligand (see WO 97/25428) or TNF-alpha (Pennica et al., Nature, 312:724-729 (1984)) were assayed for comparison. Nuclear extracts were prepared and 1 μg of nuclear protein was reacted with a ^32P-labelled NF-κB-specific synthetic oligonucleotide probe

NF-κB [4] = assay: NF-κB activation, electrophoretic mobility shift assay, 293 cells; type: cell-based, human; conditions: 3 hours, FIG. 5B and 5C
HeLa cells = assay: Apoptosis in HeLa cells transfected with full length Apo-3 Ligand (FACS, annexin V binding); type: cell-based, human; conditions: HeLa cells transfected with plasmid encoding amino acids 1 to 249, CD4-positive cells, FIG. 6
Description: A pRK5 plasmid (see EP 307,247) encoding Apo-3 Ligand polypeptide (amino acids 1 to 249 of FIG. 1), or empty pRK5 plasmid, was transiently transfected along with a pRK5 plasmid encoding human CD4 as a marker for transfection into human HeLa cells by electroporation, and the cells were plated in tissue culture dishes. Four hours later, the caspase inhibitor z-VAD-fmk (Research Biochemicals) (200 μM) was added to some of the dishes. Twenty hours later, apoptosis was determined by FACS analysis of cells positive for the CD4 marker by measuring binding of fluorescein isothiocyanate (FITC)-conjugated annexin V (Brand Applications) (see WO 97/25428).

DR5 = target: T2, DR5 (Homo sapiens, UniProt O14763); assay: Co-immunoprecipitation binding assay with DR5 ECD; conditions: ligand and receptor 1 μg/ml, FIG. 8A
T2 construct: the ECD of the Apo-2L receptor, DR5; made in house
T2 sequence (O14763 56-184 limits assumed): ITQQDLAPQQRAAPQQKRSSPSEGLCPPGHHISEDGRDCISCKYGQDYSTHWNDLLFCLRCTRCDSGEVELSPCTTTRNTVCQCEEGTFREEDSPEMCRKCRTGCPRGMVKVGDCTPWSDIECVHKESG
Description: (§1) A Flag-epitope tagged soluble Apo-3 was produced (as described for DR5 in Sheridan et al., Science, 277:818 (1997)) and tested in a co-immunoprecipitation assay to examine its ability to associate with a histidine tagged soluble Apo-3 Ligand (see Example 3 above). […] The respective ligands (1 μg/ml) and receptors (1 μg/ml) were incubated for 1 hour at room temperature. The reaction mixtures were subjected to precipitation with anti-Flag antibody conjugated to sepharose beads (Kodak) (FIG. 8A, left) or nickel-sepharose (Qiagen) (FIG. 8A, right) by overnight incubation at 4° C. according to manufacturer's instructions and resolved by gel electrophoresis. The ligands were visualized by Western blot analysis with nickel-conjugated horseradish peroxidase. In FIG. 8A, molecular weight markers (kDa) are indicated on the left.

[5] = test system: Jun N-terminal kinase (JNK/SAPK); assay: JNK/SAPK activity in 293 cells transfected with full length Apo-3 Ligand; type: cell-based, human; conditions: 293 cells transfected, FIG. 7
Description: The pRK5 plasmid encoding Apo-3 Ligand polypeptide or empty pRK5 plasmid (see Example 6 above) was transiently transfected into human 293 cells (ATCC CCL 1573) by calcium phosphate precipitation. Four hours later, one set of cells was treated with z-VAD-fmk (Research Biochemicals) (200 μM). Twenty hours later, the cells were harvested and analyzed for activity of Jun N-terminal kinase (JNK; also called stress activated protein kinase or SAPK) using a commercially available JNK/SAPK assay kit (New England Biolabs), and according to the manufacturer's instructions.

Apo-3 = target: T1, Apo-3; assay: Co-immunoprecipitation binding assay with Flag-tagged soluble Apo-3; conditions: ligand and receptor 1 μg/ml, FIG. 8A
Description: A binding assay was conducted to determine if Apo-3 Ligand binds Apo-3 receptor. Apo-3 receptor was described by Marsters et al., Curr. Biol., 6:750 (1996). Other investigators have also referred to Apo-3 as DR3 [Chinnayian et al., Science, 274:990 (1996)], Wsl-1 [Kitson et al., Nature, 384:372 (1996)], TRAMP [Bodmer et al., Immunity, 6:79 (1997)], or LARD [Screaton et al., PNAS, 94:4615-4619 (1997)].
as §1

MCF-7 cells = assay: Apoptosis by soluble Apo-3 Ligand in MCF-7 cells transfected with caspase inhibitors or FADD mutant; type: cell-based, human; conditions: CHX 1 hour, soluble Apo-3 Ligand 2 μg/ml 14 hours, FIG. 9D
Description: MCF-7 cells were transfected by lipofection with empty vector (pRK5; EP 307,247) or with expression plasmid encoding the caspase inhibitors, p35 or CrmA, or a dominant-negative FADD mutant (Tularik, South San Francisco, Calif.). Sixteen hours later, the cells were pre-treated with CHX for 1 hour, and then treated for an additional 14 hours with soluble Apo-3 Ligand (2 μg/ml).

Molecule | apoptosis (internucleosomal DNA fragmentation) [1] | apoptosis (morphological changes and chromatin condensation) [2] | NF-κB activation (NF-κB [3]; 10 μg/ml, 30 minutes) | level of NF-κB activation compared with Apo-2 ligand (NF-κB [3]) | level of NF-κB activation compared with TNF-alpha (NF-κB [3]) | NF-κB activation (NF-κB [4]) | level of apoptosis compared with pRK5 (control) (HeLa cells) | binding to DR5 (DR5) | level of JNK/SAPK activity compared with pRK5 control [5] | binding to Apo-3 (Apo-3) | binding to Apo-3 (Apo-3; listed as Apo-3L) | effect of transfection on induction of apoptosis by Apo-3 Ligand (MCF-7 cells)
soluble Apo-3 Ligand (protein) MGHHHHHHHHHHSSGHIDDDDKHMRASLSAQEPAQEELVAEEDQDPSELNPQTEESQDPAPFLNRLVRPRRSAPKGRKTRARRAIAAHYEVHPRPGQDGAQAGVDGTVSGWEEARINSSSPLRYNRQIGEFIVTRAGLYYLYCQVHFDEGKAVYLKLDLLVDGVLALRCLEEFSATAASSLGPQLRLCQVSGLLALRPGSSLRIRTLPWAHLKAAPFLTYFGLFQVH | induced marked apoptosis | induced marked apoptosis | induced significant NF-κB activation | comparable | weaker | – | – | – | – | – | – | –
Apo-3 Ligand: Novel human TNF family polypeptide of 249 amino acids encoded by clone DNA30879-1152 (ATCC 209358) (protein) MGHHHHHHHHHHSSGHIDDDDKHMRASLSAQEPAQEELVAEEDQDPSELNPQTEESQDPAPFLNRLVRPRRSAPKGRKTRARRAIAAHYEVHPRPGQDGAQAGVDGTVSGWEEARINSSSPLRYNRQIGEFIVTRAGLYYLYCQVHFDEGKAVYLKLDLLVDGVLALRCLEEFSATAASSLGPQLRLCQVSGLLALRPGSSLRIRTLPWAHLKAAPFLTYFGLFQVH | – | induced apoptosis | – | – | – | NF-κB activation | about a doubling of the level of apoptosis | not to DR5 | detectable increase; also recorded: increased JNK/SAPK activity | bound to Apo-3 | specifically binds to Apo-3 | –
p35: virus-derived caspase inhibitor, expressed from a transfected plasmid (protein, UniProt P08160 1-299, looked up) Early 35 kDa protein: MCVIFPVEIDVSQTIIRDCQVDKQTRELVYINKIMNTQLTKPVLMMFNISGPIRSVTRKNNNLRDRIKSKVDEQFDQLERDYSDQMDGFHDSIKYFKDEHYSVSCQNGSVLKSKFAKILKSHDYTDKKSIEAYEKYCLPKLVDERNDYYVAVCVLKPGFENGSNQVLSFEYNPIGNKVIVPFAHEINDTGLYEYDVVAYVDSVQFDGEQFEEFVQSLILPSSFKNSEKVLYYNEASKNKSMIYKALEFTTESSWGKSEKYNWKIFCNGFIYDKKSKVLYVKLHNVTSALNKNVILNTIK | – | – | – | – | – | – | – | – | – | – | – | blocked induction of apoptosis
